Measured values as given in publication PMC7334205.

Experiments:
Assay in all cases: bimolecular fluorescence complementation (BiFC), quantitative imaging of nuclear Venus fluorescence in cells
VN-Impα2 = VN-Impα2 (UniProt P52293); conditions: 18 h post-transfection, mean ± SEM, three independent experiments, parent: est. 1.0, read off a plot
VN-CIC = VN-CIC (UniProt Q96RK0); conditions: 18 h post-transfection; n = 258 (85Q) and 201 (mVS) nuclei; mean ± SEM, three independent experiments; parent: est. 1.0; read off a plot
Chain of UniProt Q96RK0 (Q96RK0 whole entry): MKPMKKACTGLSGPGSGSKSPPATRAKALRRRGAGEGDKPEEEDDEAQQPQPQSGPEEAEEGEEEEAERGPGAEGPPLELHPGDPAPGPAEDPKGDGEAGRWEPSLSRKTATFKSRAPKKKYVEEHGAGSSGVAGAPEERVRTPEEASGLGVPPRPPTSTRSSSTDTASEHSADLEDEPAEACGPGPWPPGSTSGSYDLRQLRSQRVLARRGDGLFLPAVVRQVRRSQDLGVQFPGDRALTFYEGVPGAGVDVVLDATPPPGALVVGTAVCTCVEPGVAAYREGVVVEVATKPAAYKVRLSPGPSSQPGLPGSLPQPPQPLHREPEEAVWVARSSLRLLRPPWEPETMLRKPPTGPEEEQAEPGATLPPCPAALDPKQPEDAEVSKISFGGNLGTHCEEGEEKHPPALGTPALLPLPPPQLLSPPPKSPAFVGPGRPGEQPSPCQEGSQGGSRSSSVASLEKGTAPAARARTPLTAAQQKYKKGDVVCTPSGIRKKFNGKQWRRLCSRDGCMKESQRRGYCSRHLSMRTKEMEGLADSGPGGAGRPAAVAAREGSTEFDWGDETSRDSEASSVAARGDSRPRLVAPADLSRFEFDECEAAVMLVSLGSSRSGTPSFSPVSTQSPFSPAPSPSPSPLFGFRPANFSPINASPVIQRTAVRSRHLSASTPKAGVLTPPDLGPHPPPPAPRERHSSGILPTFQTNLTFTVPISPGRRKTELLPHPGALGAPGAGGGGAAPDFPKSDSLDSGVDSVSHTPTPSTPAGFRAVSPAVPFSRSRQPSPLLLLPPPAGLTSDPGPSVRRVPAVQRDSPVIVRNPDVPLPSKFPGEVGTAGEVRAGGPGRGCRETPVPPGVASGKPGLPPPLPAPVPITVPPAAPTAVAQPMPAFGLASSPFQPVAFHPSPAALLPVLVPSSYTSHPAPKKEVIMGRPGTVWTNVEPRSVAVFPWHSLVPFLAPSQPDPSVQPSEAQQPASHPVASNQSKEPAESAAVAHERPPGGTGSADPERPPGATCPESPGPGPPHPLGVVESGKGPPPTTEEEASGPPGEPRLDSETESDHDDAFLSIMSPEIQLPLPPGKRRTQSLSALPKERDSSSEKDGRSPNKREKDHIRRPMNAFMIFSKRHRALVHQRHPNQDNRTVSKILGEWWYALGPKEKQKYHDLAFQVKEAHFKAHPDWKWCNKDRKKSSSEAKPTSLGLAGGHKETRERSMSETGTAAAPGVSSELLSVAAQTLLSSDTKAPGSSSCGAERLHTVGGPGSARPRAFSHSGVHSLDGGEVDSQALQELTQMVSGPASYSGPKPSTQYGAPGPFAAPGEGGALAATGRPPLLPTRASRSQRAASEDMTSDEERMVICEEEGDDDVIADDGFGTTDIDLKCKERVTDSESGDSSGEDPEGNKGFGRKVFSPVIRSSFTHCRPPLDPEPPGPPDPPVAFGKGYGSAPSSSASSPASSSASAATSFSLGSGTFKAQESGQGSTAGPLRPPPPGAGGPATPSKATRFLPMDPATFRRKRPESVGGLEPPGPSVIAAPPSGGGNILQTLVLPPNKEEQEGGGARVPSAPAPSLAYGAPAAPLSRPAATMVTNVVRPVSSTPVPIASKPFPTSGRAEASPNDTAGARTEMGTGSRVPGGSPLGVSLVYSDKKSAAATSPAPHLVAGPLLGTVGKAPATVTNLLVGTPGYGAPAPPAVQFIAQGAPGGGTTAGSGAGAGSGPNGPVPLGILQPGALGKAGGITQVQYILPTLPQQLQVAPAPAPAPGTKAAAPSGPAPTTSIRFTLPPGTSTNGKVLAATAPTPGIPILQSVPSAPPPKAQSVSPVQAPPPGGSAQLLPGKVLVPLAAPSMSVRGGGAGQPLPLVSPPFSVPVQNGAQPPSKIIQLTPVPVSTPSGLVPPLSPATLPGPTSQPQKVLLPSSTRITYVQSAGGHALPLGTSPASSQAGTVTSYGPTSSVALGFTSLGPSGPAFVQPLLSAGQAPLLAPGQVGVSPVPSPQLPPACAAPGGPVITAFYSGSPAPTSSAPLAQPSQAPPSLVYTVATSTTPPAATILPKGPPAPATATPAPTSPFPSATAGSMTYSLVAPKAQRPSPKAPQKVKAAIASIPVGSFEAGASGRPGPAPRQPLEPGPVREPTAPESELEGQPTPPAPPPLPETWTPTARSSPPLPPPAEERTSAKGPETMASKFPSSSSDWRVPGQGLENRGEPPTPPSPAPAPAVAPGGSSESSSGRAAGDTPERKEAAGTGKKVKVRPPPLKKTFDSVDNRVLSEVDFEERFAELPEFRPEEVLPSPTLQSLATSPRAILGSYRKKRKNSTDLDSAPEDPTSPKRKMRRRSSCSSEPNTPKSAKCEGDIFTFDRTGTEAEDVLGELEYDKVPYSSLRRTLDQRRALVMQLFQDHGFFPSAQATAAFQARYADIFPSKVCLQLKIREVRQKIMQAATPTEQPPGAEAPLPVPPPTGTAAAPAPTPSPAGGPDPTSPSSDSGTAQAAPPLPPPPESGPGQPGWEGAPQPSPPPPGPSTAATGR

VC-ataxin-1[85Q] = VC-ataxin-1[85Q] (UniProt P54253); conditions: 18 h post-transfection; n = 155 (wild-type Impα2) and 131 (mDE) nuclei; mean ± SEM, three independent experiments; parent: est. 1.0; read off a plot

VC-ataxin-1[85Q] (from UniProt P54253) K772T
ratio to parent (VN-Impα2; n = 155 (85Q) and 172 (K772T) nuclei): 0.55

VC-ataxin-1[85Q] (from UniProt P54253) V591A; S602D
ratio to parent (VN-Impα2; n = 101 and 101 nuclei): 0.72 | ratio to parent (VN-CIC): 0.47

VN-Impα2 (from UniProt P52293) D192K; E396R
ratio to parent (VC-ataxin-1[85Q]): 0.75
